{"source": "paper PMC9605988", "about": "“Juxtaposition of Bub1 and Cdc20 on phosphorylated Mad1 during catalytic mitotic checkpoint complex assembly” (Nature Communications, 2022)", "key": {"pMad1CTD:Cdc20N complex": {"target": "T1, pMad1CTD:Cdc20N complex (Homo sapiens, UniProt Q12834+Q9Y6D9)", "T1 construct": "the C-terminal domain of Mad1 (residue 597–718); made in house; host or cells: Cdc20N: E. coli Rosetta 2 (DE3)", "test": "Fluorescence anisotropy: AF488-Bub1CD1 binding to preformed pMad1CTD:Cdc20N complex", "conditions": "KD 1.7 vs 0.9 µM for pMad1CTD alone", "method": "(§1) All reactions were completed in a buffer of 25 mM HEPES pH 7.75, 1 mM TCEP, 100 mM NaCl, 0.05% (v/v) Tween-20. […] Measurements were performed with a PheraStar plate reader FSX plate reader (BMG Labtech) using an optic module for λex = 485 nm, λem = 520 nm. Reactions were carried out in a total volume of 40 μl at 25 °C in a black, flat-bottom, non-binding surface 384-well plate (Corning). All experiments were performed as technical triplicates and data were analysed in PRISM 9.3.1 (GraphPad Software)."}, "Mad1 CTD (Homo sapiens)": {"target": "Mad1 CTD (Homo sapiens) (UniProt Q9Y6D9)", "conditions": "cited from earlier work"}, "[1]": {"target": "Mad1^CTD phosphorylated at Thr716 (pMad1^CTD) (UniProt Q9Y6D9)", "test": "AUC; sedimentation equilibrium; 20 mM HEPES pH 7.5, 100 mM NaCl, 1 mM TCEP; 20 °C; 10,200, 12,200 and 21,000 rpm; up to four-fold molar excess of Cdc20^N"}, "[2]": {"target": "Mad1^CTD phosphorylated at Thr716 (pMad1^CTD) (UniProt Q9Y6D9)", "test": "SEC-MALS; Superdex 75 or Superdex 200 Increase 10/300 GL, 0.5 ml/min; about 100 μl at ~3.0 mg/ml; Mad1^CTD dimer to Cdc20^N 1:1.2; proteins also run alone"}, "[3]": {"target": "T2, preformed AF488-Bub1^CD1:Mad1^CTD complex (Mad1^CTD unphosphorylated) (UniProt Q9Y6D9 597-718, Aurora Fluor 488 (AF488) on the N-terminal Cys; phosphoserine (pSer459); phosphothreonine (pThr461))", "T2 construct": "Mad1 C-terminal domain (Mad1^CTD), residues 597-718; as m1; added N-terminal Cys (carries AF488) and Trp; as m7; Bub1 conserved domain 1 (CD1) peptide; also called Mad1^CTD:AF488-Bub1^CD1 complex; source: mixed from purified Mad1^CTD and synthetic peptide (20 nM: 2.1 µM); copies: 2 + 1", "T2 sequence 1": "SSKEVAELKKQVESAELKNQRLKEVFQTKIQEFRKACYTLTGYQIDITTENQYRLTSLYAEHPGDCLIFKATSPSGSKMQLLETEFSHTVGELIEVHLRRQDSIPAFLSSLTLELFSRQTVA", "T2 sequence 2": "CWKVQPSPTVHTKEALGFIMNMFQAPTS", "test": "fluorescence polarisation; fluorescence anisotropy; Cdc20^N twofold series (100 μM to 6 nM, mixed 1:1) titrated into preformed AF488-Bub1^CD1:Mad1^CTD (20 nM: 2.1 µM); 25 mM HEPES pH 7.75, 1 mM TCEP, 100 mM NaCl, 0.05% Tween-20; 25 °C", "conditions": "both partners purified"}, "[4]": {"target": "T3, preformed AF488-Bub1^CD1:pMad1^CTD complex (Mad1^CTD phosphorylated at Thr716) (UniProt Q9Y6D9 597-718, phosphothreonine at 716 (pThr716) | Aurora Fluor 488 (AF488) on the N-terminal Cys; phosphoserine (pSer459); phosphothreonine (pThr461))", "T3 construct": "Mad1 C-terminal domain (Mad1^CTD), residues 597-718; as m2; added N-terminal Cys (carries AF488) and Trp; as m7; Bub1 conserved domain 1 (CD1) peptide; source: mixed from purified pMad1^CTD and synthetic peptide (20 nM: 2.1 µM); copies: 2 + 1", "T3 sequence 1": "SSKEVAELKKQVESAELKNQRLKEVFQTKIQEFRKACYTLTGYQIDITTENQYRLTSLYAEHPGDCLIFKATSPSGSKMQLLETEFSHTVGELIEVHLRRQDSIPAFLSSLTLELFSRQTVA", "T3 sequence 2": "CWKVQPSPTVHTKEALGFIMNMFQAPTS", "test": "fluorescence polarisation; fluorescence anisotropy; Cdc20^N twofold series (100 μM to 6 nM, mixed 1:1) titrated into preformed AF488-Bub1^CD1:Mad1^CTD (20 nM: 2.1 µM); 25 mM HEPES pH 7.75, 1 mM TCEP, 100 mM NaCl, 0.05% Tween-20; 25 °C", "conditions": "both partners purified"}, "[5]": {"test_system": "AF488-Bub1CD1:pMad1CTD complex", "test": "Fluorescence anisotropy: Cdc20N titrated into preformed AF488-Bub1CD1:pMad1CTD complex", "assay_type": "binding, human", "conditions": "at the concentrations used in the assay"}, "pMad1CTD (Mad1CTD pT716)": {"test_system": "pMad1CTD (Mad1CTD pT716)", "test": "SEC-MALS, Cdc20N with pMad1CTD", "assay_type": "binding, human", "conditions": "1:1.2 ratio Mad1CTD dimer to Cdc20N", "method": "(§2) Size-exclusion chromatography coupled with multi-angle static light scattering (SEC-MALS), was performed using an Agilent 1200 series LC system with an online Dawn Helios ii system (Wyatt) equipped with a QELS + module (Wyatt) and an Optilab rEX differential refractive index detector (Wyatt). About 100 μl purified protein at ~3.0 mg/ml was auto-injected onto Superdex 75 or a Superdex 200 Increase 10/300 GL column (GE Healthcare) and run at 0.5 ml/min. The molecular masses were analysed with ASTRA 7.3.0.11 (Wyatt). Data were plotted using Prism 8.4.3 (GraphPad Software, Inc). Purified Cdc20^N and Cdc20^N mutants were incubated with Mad1^CTD wild-type or mutants at a 1:1.2 ratio of Mad1^CTD dimer to Cdc20^N."}, "[6]": {"test_system": "Mad1CTD R617E/K619D mutant", "test": "SEC-MALS, Cdc20N with Mad1CTD R617E/K619D", "assay_type": "binding, human", "conditions": "1:1.2 ratio Mad1CTD dimer to Cdc20N", "method": "as §2"}, "[7]": {"target": "the molecule itself", "test": "SEC-MALS; Superdex 75 or Superdex 200 Increase 10/300 GL, 0.5 ml/min; about 100 μl at ~3.0 mg/ml; Mad1^CTD dimer to Cdc20^N 1:1.2; proteins also run alone"}, "Bub1CD1 [8]": {"test_system": "Bub1CD1", "test": "Binding of Mad1CTD mutants to Bub1CD1", "conditions": "fluorescence anisotropy therefore not usable for this mutant", "method": "as §1"}, "Bub1CD1 [9]": {"test_system": "Bub1CD1", "conditions": "cited from earlier work", "text": "(§3) In this predicted model, the Cdc20^N α1 helix lies diagonally across the Mad1^CTD coiled-coil with its N-terminus close to the Mad1 RLK motif of one monomer, and the C-terminus contacting the head domain β-sheet of the adjacent monomer, in a manner that strikingly mimics the Bub1^CD1:Mad1^CTD interaction (Fig. 4d). Similar to Bub1^CD1, the interaction of Cdc20 α1 with Mad1^CTD would largely be driven by hydrophobic interactions (Fig. 4e). This model predicts that Gln3 and Glu7, and Asp9 of Cdc20 α1 interact with Arg617 and Lys619, respectively of the Mad1^CTD RLK motif (Fig. 4d). This is consi ..."}, "[10]": {"test_system": "spindle assembly checkpoint", "conditions": "cited from earlier work", "text": "as §3"}, "[11]": {"target": "T4, Mad2 R133A prepared in the open state for NMR (O-Mad2) (UniProt Q13257 1-205, R133A)", "T4 construct": "Mad2; also called O-Mad2 with an R133A mutation; source: 15N-labelled in M9 minimal media", "T4 sequence (Q13257 whole entry R133A)": "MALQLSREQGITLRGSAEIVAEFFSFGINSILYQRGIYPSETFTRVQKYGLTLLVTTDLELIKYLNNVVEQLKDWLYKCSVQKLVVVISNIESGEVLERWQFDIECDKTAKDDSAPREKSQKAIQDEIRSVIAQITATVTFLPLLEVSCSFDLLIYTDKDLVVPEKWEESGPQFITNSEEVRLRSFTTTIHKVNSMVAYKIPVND", "test": "NMR time course (1H,15N HSQC); 100 μM 15N O-Mad2 R133A with 200 μM Cdc20^MIM peptide; 25 °C; Trp75 and Trp167 indole resonances as reporters", "conditions": "both partners purified"}}, "note": "Like-named read-outs stand apart in the source and are kept apart here. Square brackets hold non-standard residues; d marks the D form. Peptide text beside a SMILES is read from it. * marks the point of attachment. X1 = N=c1ccc2c(-c3ccc(C(=O)NCCCCCN4C(=O)CC(*)C4=O)cc3C(=O)O)c3ccc(N)c(S(=O)(=O)O)c3oc-2c1S(=O)(=O)O; pT = C[C@@H](OP(=O)(O)O)[C@H](N)C(=O)O; pS = N[C@@H](COP(=O)(O)O)C(=O)O", "data": [{"molecule": "CC[C@H](C)[C@H](NC(=O)[C@H](Cc1ccccc1)NC(=O)CNC(=O)[C@H](CC(C)C)NC(=O)[C@H](C)NC(=O)[C@H](CCC(=O)O)NC(=O)[C@H](CCCCN)NC(=O)[C@@H](NC(=O)[C@H](Cc1c[nH]cn1)NC(=O)[C@@H](NC(=O)[C@@H](NC(=O)[C@@H]1CCCN1C(=O)[C@H](COP(=O)(O)O)NC(=O)[C@@H]1CCCN1C(=O)[C@H](CCC(N)=O)NC(=O)[C@@H](NC(=O)[C@H](CCCCN)NC(=O)[C@H](Cc1c[nH]c2ccccc12)NC(=O)[C@@H](N)CSC1CC(=O)N(CCCCCNC(=O)c2ccc(-c3c4ccc(=N)c(S(=O)(=O)O)c-4oc4c(S(=O)(=O)O)c(N)ccc34)c(C(=O)O)c2)C1=O)C(C)C)[C@@H](C)OP(=O)(O)O)C(C)C)[C@@H](C)O)C(=O)N[C@@H](CCSC)C(=O)N[C@@H](CC(N)=O)C(=O)N[C@@H](CCSC)C(=O)N[C@@H](Cc1ccccc1)C(=O)N[C@@H](CCC(N)=O)C(=O)N[C@@H](C)C(=O)N1CCC[C@H]1C(=O)N[C@H](C(=O)N[C@@H](CO)C(=O)O)[C@@H](C)O", "note": "(stereo partly drawn) [AF488-Bub1^CD1] (H-C(X1)WKVQP[pS]P[pT]VHTKEALGFIMNMFQAPTS-OH; N-terminus and C-terminus assumed)", "values": [{"measurement": "cooperativity of Bub1CD1 and Cdc20N binding to pMad1CTD", "setting": "pMad1CTD:Cdc20N complex", "result": "unlikely to be cooperative"}, {"measurement": "cooperativity of Bub1CD1 and Cdc20N binding to pMad1CTD", "setting": "pMad1CTD:Cdc20N complex; listed as AF488-Bub1CD1", "result": "no cooperativity"}]}, {"molecule": "Bub1 CD1 (from UniProt O43683)", "values": [{"measurement": "Kd", "setting": "Mad1 CTD (Homo sapiens)", "result": 2.7, "unit": "µM"}]}, {"molecule": "Cdc20^N (N-terminal truncation of Cdc20, residues 1-73) (domain or fragment, human, UniProt Q12834 1-73, looked up, human Cdc20, residues 1-73; also called Cdc20^1–73; wild-type Cdc20^N; source: E. coli Rosetta 2 (DE3), purified (TALON, TEV cleavage, HisTrap, Resource S, Superdex 75); not shown: His6, N-terminal, cleaved; MBP, N-terminal, cleaved) MAQFAFESDLHSLLQLDAPIPNAPPARWQRKAKEAAGPAPSPMRAANRSHSAGRTPGRTPGKSSSKVQTTPSK", "values": [{"measurement": "stoichiometry N (Cdc20^N per pMad1^CTD homodimer)", "setting": "[1]", "result": 1}, {"measurement": "stoichiometry N (Cdc20^N per pMad1^CTD dimer)", "setting": "[2]", "result": 1}, {"measurement": "Kd", "setting": "[3]", "result": 28.1, "unit": "µM"}, {"measurement": "Kd", "setting": "[4]", "result": 4.8, "unit": "µM"}]}, {"molecule": "Cdc20^N E7R/D9K: Cdc20N E7R/D9K mutant (protein, left off: His6, N-terminal, state not stated | MBP, N-terminal, state not stated, Cdc20N E7R/D9K mutant) MAQFAFRSKLHSLLQLDAPIPNAPPARWQRKAKEAAGPAPSPMRAANRSHSAGRTPGRTPGKSSSKVQTTPSK", "values": [{"measurement": "interaction with pMad1CTD by fluorescence anisotropy", "setting": "[5]", "result": "could no longer be observed"}, {"measurement": "binding by SEC-MALS", "setting": "pMad1CTD (Mad1CTD pT716)", "result": "could no longer be observed"}, {"measurement": "binding by SEC-MALS", "setting": "[6]", "result": "did not show an interaction"}]}, {"molecule": "Mad1^CTD phosphorylated at Thr716 (pMad1^CTD) (domain or fragment, UniProt Q9Y6D9 597-718, looked up, phosphothreonine at 716 (pThr716), Mad1 C-terminal domain (Mad1^CTD), residues 597-718; Homodimer; A few peptides phosphorylated at Thr644 were also found; one phosphate per monomer by intact mass; also called Mad1^CTD pT716; Mad1^CTD pThr716) SSKEVAELKKQVESAELKNQRLKEVFQTKIQEFRKACYTLTGYQIDITTENQYRLTSLYAEHPGDCLIFKATSPSGSKMQLLETEFSHTVGELIEVHLRRQDSIPAFLSSLTLELFSRQTVA", "values": [{"measurement": "stoichiometry N", "setting": "[7]", "result": 2}]}, {"molecule": "Mad1^CTD R617E/K619D: Mad1CTD double mutant of the RLK motif (protein) SSKEVAELKKQVESAELKNQELDEVFQTKIQEFRKACYTLTGYQIDITTENQYRLTSLYAEHPGDCLIFKATSPSGSKMQLLETEFSHTVGELIEVHLRRQDSIPAFLSSLTLELFSRQTVA", "values": [{"measurement": "Bub1CD1 binding of Mad1CTD mutant", "setting": "Bub1CD1 [8]", "result": "disrupted the binding of Bub1^CD1"}]}, {"molecule": "Mad1^CTD K619A: Mad1CTD K619A mutant, refs 21, 24 (protein, UniProt Q9Y6D9 597-718, looked up, variant K619A) SSKEVAELKKQVESAELKNQRLAEVFQTKIQEFRKACYTLTGYQIDITTENQYRLTSLYAEHPGDCLIFKATSPSGSKMQLLETEFSHTVGELIEVHLRRQDSIPAFLSSLTLELFSRQTVA", "values": [{"measurement": "Bub1CD1 binding of Mad1CTD mutant", "setting": "Bub1CD1 [9]", "result": "did not disrupt Bub1^CD1 binding significantly"}, {"measurement": "checkpoint function", "setting": "[10]", "result": "disrupted the checkpoint"}]}, {"molecule": "NLNGFDVEEAKILRLSGKPQNAPEGYQNRLKVLY (source: synthetic peptide (Designer Bioscience, UK))", "note": "[Cdc20^MIM peptide]", "values": [{"measurement": "binding result", "setting": "[11]", "result": "binds"}]}]}
